Measurements reported in doi:10.1101/452482 (bioRxiv, 2018).
Where two headings read alike, the source gives them in different places. Ends that are not written are not given here. fluorescein = fluorescein label at the N-terminus of the peptide

Assays:
[1] = molecular target: N-CoRNID labelled with Atto647N (mouse) (UniProt Q60974); assay: MST
[2] = molecular target: N-CoRNID labelled with Atto647N (mouse) (UniProt Q60974); assay: MST; remark: listed apart in the source
[3] = molecular target: fluorescent peptide CoRNR2 of N-CoR; assay: fluorescence polarisation
[4] = molecular target: fluorescent peptide CoRNR1 of N-CoR; assay: fluorescence polarisation
[5] = molecular target: N-CoRNID, nuclear receptor interaction domain of N-CoR (Gln2059 to Glu2325) (mouse) (UniProt Q60974); assay: AUC + other: RPLC-UV/MS
N-CoRNID, nuclear receptor interaction domain of N-CoR (Gln2059 to Glu2325) (mouse), sequence (Q60974 2059-2325): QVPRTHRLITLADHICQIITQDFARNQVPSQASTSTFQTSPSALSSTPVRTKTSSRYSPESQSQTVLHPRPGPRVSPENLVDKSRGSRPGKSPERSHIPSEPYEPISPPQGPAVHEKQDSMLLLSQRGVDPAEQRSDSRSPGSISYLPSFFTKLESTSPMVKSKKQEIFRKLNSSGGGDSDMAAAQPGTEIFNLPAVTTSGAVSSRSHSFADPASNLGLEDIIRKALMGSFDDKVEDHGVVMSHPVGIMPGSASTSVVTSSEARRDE

[6] = molecular target: N-CoRNID, nuclear receptor interaction domain of N-CoR (Gln2059 to Glu2325) (mouse) (UniProt Q60974); assay: SAXS
[7] = molecular target: T1, RXR (RXRα ligand-binding domain) (mouse, UniProt P28700 227-467); assay: AUC + other: RPLC-UV/MS
T1 sequence (looked up): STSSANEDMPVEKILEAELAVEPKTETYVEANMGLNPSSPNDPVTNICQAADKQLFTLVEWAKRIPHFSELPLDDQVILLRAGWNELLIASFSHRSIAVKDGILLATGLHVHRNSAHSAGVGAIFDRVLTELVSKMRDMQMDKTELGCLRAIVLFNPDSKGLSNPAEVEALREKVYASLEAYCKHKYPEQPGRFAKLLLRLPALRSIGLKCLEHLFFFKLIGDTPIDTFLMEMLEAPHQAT

[8] = molecular target: T1, RXR (RXRα ligand-binding domain); assay: fluorescence polarisation

N-CoRNID labelled with Atto647N (mouse), sequence (Q60974 2059-2325): as the sequence (Q60974 2059-2325) above

## RXR/RARI396E heterodimer (mRXRα/hRARαI396E) (from UniProt P28700 1-467; P10276 1-462) (complex)
[1]
  Kd: 4.42 µM

## RXR/RAR heterodimer (mRXRα/hRARα), ligand-binding domains (from UniProt P28700 1-467; P10276 1-462) (complex)
[2]
  Kd: 8.6 µM
[3]
  Kd: 1.47 µM
[4]
  Kd: 1.68 µM
[5]
  stoichiometry N: 1
[1]
  Kd: 0.21 µM
[6]
  population of unbound species: 51%

B1: RAR (RARα ligand-binding domain) (domain or fragment, human, UniProt P10276 176-421, looked up)
chain: ESYTLTPEVGELIEKVRKAHQETFPALCQLGKYTTNNSSEQRVSLDIDLWDKFSELSTKCIIKTVEFAKQLPGFTTLTIADQITLLKAACLDILILRICTRYTPEQDTMTFSDGLTLNRTQMHNAGFGPLTDLVFAFANQLLPLEMDDAETGLLSAICLICGDRQDLEQPDRVDMLQEPLLEALKVYVRKRRPSRPHMFPKMLMKITDLRSISAKGAERVITLKMEIPGSMPPLIQEMLENSEGLD
[7]
  stoichiometry N: 1

B2: fluorescent peptide CoRNR2 of N-CoR (peptide)
peptide: fluorescein-DPASNLGLEDIIRKALMGSFD
[8]
  Kd: 22.5 µM
